Data reported in patent US20190367626A1.

Columns and labels:
TRAILshort = TRAILshort (UniProt P50591); assay: flow cytometry of 293T cells transfected with WT TRAILshort, isotype control staining
P76A TRAILshort = assay: flow cytometry of 293T cells transfected with P76A TRAILshort, isotype control staining

TRAILshort, sequence (P50591 other isoform, or with tags, fused parts or gaps): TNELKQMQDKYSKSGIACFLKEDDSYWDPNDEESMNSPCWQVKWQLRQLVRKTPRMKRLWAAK

C555 labeled anti-Ig3 Isotype control (antibody)
percent of cells in the gate (TRAILshort): 3.2%
percent of cells in the gate (P76A TRAILshort): 2.2%
